Experimental data: publication PMC3035906 (Cell Death & Disease, 2010)

Molecular target: DR4-Ig (death receptor 4, Ig fusion) (UniProt O00220)
Assay: SPR

Sequence of DR4-Ig (death receptor 4, Ig fusion) (O00220 24-239): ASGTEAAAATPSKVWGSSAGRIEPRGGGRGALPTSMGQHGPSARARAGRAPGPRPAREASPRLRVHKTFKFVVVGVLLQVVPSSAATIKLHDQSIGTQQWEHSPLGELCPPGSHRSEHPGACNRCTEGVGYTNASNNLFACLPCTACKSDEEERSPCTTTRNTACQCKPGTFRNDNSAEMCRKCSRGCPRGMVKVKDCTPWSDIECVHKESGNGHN

Row | Binder | Kd [nM] | koff [s⁻¹] | kon [M⁻¹ s⁻¹]
1 | rhTRAIL variant 4C7 (G131R/R149I/S159R/N199R/K201H/S215D) (ligand) VRERGPQRVAAHITGTRRRSNTLSSPNSKNEKALGIKINSWESSRRGHSFLSNLHLRNGELVIHEKGFYYIYSQTYFRFQEEIKERTHNDKQMVQYIYKYTDYPDPILLMKSARNSCWSKDAEYGLYSIYQGGIFELKENDRIFVSVTNEHLIDMDHEASFFGAFLVG | 0.021 ± 0.01 | 5.9e-05 | 2.81e+06
2 | rhTRAIL variant 4C9 (G131R/R149I/S159R/S215D) (ligand) VRERGPQRVAAHITGTRRRSNTLSSPNSKNEKALGIKINSWESSRRGHSFLSNLHLRNGELVIHEKGFYYIYSQTYFRFQEEIKENTKNDKQMVQYIYKYTDYPDPILLMKSARNSCWSKDAEYGLYSIYQGGIFELKENDRIFVSVTNEHLIDMDHEASFFGAFLVG | 0.025 ± 0.02 | 5.8e-05 | 2.35e+06
